Target: DcpA (Agrobacterium tumefaciens C58)
Assay: cross-linking

## PruR (natural protein)
  stoichiometry N: 1
